{"source": "paper doi:10.1101/2025.08.01.668162", "key": {"[1]": {"target": "SEL1L S658P (mouse knock-in) (mouse (endogenous in MEFs and liver)) (UniProt Q9Z2G6)", "sequence (Q9Z2G6 22-790, stated change not applied)": "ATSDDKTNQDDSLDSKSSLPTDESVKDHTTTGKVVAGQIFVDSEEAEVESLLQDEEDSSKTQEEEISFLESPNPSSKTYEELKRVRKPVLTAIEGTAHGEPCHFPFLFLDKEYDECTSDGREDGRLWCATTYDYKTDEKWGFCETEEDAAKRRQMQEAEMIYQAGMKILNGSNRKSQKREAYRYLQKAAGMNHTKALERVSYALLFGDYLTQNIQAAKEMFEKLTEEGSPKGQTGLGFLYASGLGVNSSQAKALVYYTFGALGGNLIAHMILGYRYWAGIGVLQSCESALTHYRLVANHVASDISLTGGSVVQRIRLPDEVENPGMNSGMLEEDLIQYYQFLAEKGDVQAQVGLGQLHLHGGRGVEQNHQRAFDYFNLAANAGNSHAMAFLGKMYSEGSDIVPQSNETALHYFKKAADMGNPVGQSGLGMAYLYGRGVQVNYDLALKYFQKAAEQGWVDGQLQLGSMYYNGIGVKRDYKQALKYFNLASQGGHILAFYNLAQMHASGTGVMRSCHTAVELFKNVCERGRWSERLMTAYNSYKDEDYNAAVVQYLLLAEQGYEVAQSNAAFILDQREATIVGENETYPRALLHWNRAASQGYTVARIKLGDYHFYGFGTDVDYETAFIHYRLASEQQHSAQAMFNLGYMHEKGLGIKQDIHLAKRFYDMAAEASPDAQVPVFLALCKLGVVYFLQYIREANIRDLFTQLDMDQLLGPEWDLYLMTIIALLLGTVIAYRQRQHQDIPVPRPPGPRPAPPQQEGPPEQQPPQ", "experiment": "co-IP"}, "[2]": {"target": "SEL1L S658P (mouse knock-in) (mouse (endogenous in MEFs and liver)) (UniProt Q9Z2G6)", "experiment": "co-IP", "remark": "listed apart in the source"}}, "note": "Read-outs that look alike come from different tables or passages of the source."}
{"substance": "HRD1 (mouse) (from UniProt Q9DBY1 1-612) (natural protein)", "values": [{"measurement": "percent reduction of co-precipitated HRD1 against WT SEL1L", "setting": "[1]", "result": 80, "unit": "%"}, {"measurement": "percent reduction of co-precipitated HRD1 against WT SEL1L", "setting": "[2]", "result": 60, "unit": "%"}]}
